# Measurements reported in patent publication US20220002432A1 (VIRTUOSO BINCO, published 2022).
# Changes are numbered by the printed parent chain.
# T1: Rhesus-ICAM1 (rhesus, UniProt Q5NKV6 28-480, limits assumed)
# T1 sequence (looked up): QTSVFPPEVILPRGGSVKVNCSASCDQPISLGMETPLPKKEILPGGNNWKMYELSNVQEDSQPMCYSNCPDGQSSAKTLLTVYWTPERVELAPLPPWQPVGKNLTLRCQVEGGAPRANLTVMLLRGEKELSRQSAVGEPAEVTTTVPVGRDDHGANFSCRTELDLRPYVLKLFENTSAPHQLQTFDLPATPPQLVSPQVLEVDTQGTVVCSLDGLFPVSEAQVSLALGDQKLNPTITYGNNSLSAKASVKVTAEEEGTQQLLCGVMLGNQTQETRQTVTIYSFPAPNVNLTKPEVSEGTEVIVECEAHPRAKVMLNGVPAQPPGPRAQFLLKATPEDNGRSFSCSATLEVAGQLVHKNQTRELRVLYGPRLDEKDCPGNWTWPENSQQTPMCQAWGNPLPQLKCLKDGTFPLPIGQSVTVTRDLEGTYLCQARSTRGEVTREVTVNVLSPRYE
# B1: 8H1 (antibody, human IgG1, kappa, V domains shown)
# VH: QSVEESGGRLVTPGTPLTLTCTASGFSLSNYYMSWVRQAPGKGLEWIGIISDSGSTYYASWAKGRFTISKTSTTVDLKITSPTTEDTATYFCARDWSYDSSSGYYYYDMDLWGPGTLVTVSA
# VL: GYDMTQTPASVEVAVGGTVTIKCQASQSINSWLAWFQHKPGQPPKRLIYKASTLASGVSSRFKGSGSGTQFTLTISGVESADAATYYCQQGYSRSDGEHVFGGGTEVVVKR
# notes: Rabbit-human chimeric anti-ICAM1: rabbit VH and VL on human IgG1 and kappa constant regions
# B2: 11G7 (antibody, human IgG1, kappa, V domains shown)
# VH: QSVEESGGRLVTPGTPLTLTCTVSGFSLSDYYMSWVRQAPGKGLEWIGIISDSGSTYYASWAKGRFTISKTSSTTVDLKITSPTTEDTATYFCARDWSYDSSSGYYYYDMDLWGPGTLVTVSA
# VL: B1 VL with G1A, A34S, Q37H, H38Q
# notes: as for B1
# B3: 4H5 (antibody, human IgG1, kappa, V domains shown)
# VH: B1 VH with S55T
# VL: B1 VL with A34V, Q70H
# notes: as for B1
# B4: 15D10 (antibody, human IgG1, kappa, V domains shown)
# VH: B1 VH with S29N, G54D, S55N, Y98L
# VL: B1 VL with G1A, V11M, S28N, N30H, H38Q, S59P, E79Q, A81D
# notes: as for B1
# B5: 14H1 (antibody, human IgG1, kappa, V domains shown)
# VH: B1 VH with A23V, K78S, S101T
# VL: B1 VL with G1A, A34S, Q37H, H38Q
# notes: as for B1
# B6: 5B12 (antibody, human IgG1, kappa, V domains shown)
# VH: QSLEESGGRLVTPGTPLTLTCTVSGFSLSSYGMSWVRQAPGKGLEYIGWISFSGSAYYANWAKGRFTISKTSTTVDLKITSPTTEDTATYFCARGGDYGGSTYILNLWGPGTLVTVSS
# VL: AFELTQTPSSVEAAVGGTVTIKCQASESIDSYLSWYQQKPGQPPKLLIYAASTLASGVSSRFKGSGSGTEFTLTISDLESADAATYYCQSYSGTITTSGGAFGGGTEVVVKR
# notes: as for B1
# B7: 10B8 (antibody, human IgG1, kappa, V domains shown)
# VH: B6 VH with T15G, P16S
# VL: B6 VL with D30N, T96S
# notes: as for B1
# B8: 11F2 (antibody, human IgG1, kappa, V domains shown)
# VH: QSVEESGGGLVKPGGTLTLTCTVSGFSLSSHAMGWVRQAPGKGLEYIGIIGSSDRTYYASWAKGRFTISKTSTTVDLKITSPTTEDTATYFCVRDPYDSYDDGYRLWGPGTLVTVSS
# VL: AYDMTQTPASVEVAVGGTVTIKCQASQSIYRYLSWYQKKPGQRPKFLIYDASKLASGVPSRFEGSGSGTEFTLTISGAQSDDAATYYCQQAYSSGSIDNAFGGGTEVVVKR
# notes: as for B1
# B9: 16E4 (antibody, human IgG1, kappa, V domains shown)
# VH: QSVEESGGRLVTPGTPLTLTCTVSGFSLSSHAMGWVRQAPGKGLQYIGIIGSSGSTYYASWAKGRFTISKTSTTVDLRLTSPTTEDTATYFCVRDPYDSFGDAYRLWGPGTLVTVSS
# VL: B8 VL with R31S, L33C, K38Q, E63K, A78M, G95S, S96N, I97V
# notes: as for B1
# B10: 8B12 (antibody, human IgG1, kappa, V domains shown)
# VH: B8 VH with S30T, Y100F
# VL: B8 VL with R31S, K38Q, L54V, E63K, G77A, A78V, G95S, S96N, I97V, V108M
# notes: as for B1
# B11: 4618_1 (antibody, human IgG1, kappa, V domains shown)
# VH: EVQLLESGGGLVQPGGSLRLSCAASGFPFDVYAMSWVRQAPGKGLEWVSAISGSGGSTFYADSVKGRFTISRDNSKNTLYLQMNSLRAEDTAVYYCAKRGTYAYSFPTGFDYWGQGTLVTVSS
# VL: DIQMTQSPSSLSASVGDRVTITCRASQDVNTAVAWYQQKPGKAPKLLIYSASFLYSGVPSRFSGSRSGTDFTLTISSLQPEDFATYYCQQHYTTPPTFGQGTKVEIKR
# notes: Human IgG1 with the common anti-HER2 light chain; Library-derived anti-CD38
# B12: 4618_1_12 (antibody, human IgG1, kappa, V domains shown)
# VH: B11 VH with F106Y
# VL: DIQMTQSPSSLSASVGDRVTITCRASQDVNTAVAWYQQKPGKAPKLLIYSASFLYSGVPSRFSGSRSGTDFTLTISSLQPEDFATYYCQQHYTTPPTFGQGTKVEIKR
# notes: as for B11
# B13: 4618_12 (antibody, human IgG1, kappa, V domains shown)
# VH: B11 VH with D30G, F106Y
# VL: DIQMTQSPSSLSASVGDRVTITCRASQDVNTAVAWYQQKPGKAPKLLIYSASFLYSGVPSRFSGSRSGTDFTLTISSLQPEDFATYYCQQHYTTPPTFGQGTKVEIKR
# notes: Human IgG1 with the common anti-HER2 light chain
# B14: 32018_7 (antibody, human IgG1, kappa, V domains shown)
# VH: B11 VH with D30G, V31T, A103G
# VL: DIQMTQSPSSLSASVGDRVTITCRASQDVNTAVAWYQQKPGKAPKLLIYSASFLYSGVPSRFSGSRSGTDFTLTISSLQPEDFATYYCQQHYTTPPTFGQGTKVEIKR
# notes: as for B11
# B15: 4618_5F_12 (antibody, human IgG1, kappa, V domains shown)
# VH: B11 VH with V31A, F106Y
# VL: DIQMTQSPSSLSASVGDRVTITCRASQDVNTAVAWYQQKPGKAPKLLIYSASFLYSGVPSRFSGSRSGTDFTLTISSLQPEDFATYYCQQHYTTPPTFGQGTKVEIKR
# notes: as for B13
# B16: 4618_5_12 (antibody, human IgG1, kappa, V domains shown)
# VH: B11 VH with V31A, F59Y, F106Y
# VL: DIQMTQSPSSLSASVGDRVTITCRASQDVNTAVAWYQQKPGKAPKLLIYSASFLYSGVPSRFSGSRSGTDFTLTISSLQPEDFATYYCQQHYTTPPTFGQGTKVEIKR
# notes: as for B11
# B17: 32218_1 (antibody, human IgG1, kappa, V domains shown)
# VH: B11 VH with D30G
# VL: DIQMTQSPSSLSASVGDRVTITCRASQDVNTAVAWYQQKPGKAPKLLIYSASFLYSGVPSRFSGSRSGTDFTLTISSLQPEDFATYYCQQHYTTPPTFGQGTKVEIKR
# notes: as for B11
# B18: 4618_5 (antibody, human IgG1, kappa, V domains shown)
# VH: B11 VH with V31A, F59Y
# VL: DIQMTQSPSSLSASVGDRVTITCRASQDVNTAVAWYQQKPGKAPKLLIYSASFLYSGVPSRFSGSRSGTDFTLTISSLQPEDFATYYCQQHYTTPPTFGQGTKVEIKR
# notes: as for B11
# B19: 32218_2 (antibody, human IgG1, kappa, V domains shown)
# VH: B11 VH with V31T, F59Y
# VL: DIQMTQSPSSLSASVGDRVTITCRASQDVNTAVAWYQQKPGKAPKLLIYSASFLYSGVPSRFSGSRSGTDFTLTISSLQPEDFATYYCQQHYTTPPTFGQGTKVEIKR
# notes: as for B11
# Target: T2, ICAM1 on the surface of DU145 cells (human, UniProt P05362 28-532)
# T2 construct: whole, on cells
# T2 sequence (P05362 28-532): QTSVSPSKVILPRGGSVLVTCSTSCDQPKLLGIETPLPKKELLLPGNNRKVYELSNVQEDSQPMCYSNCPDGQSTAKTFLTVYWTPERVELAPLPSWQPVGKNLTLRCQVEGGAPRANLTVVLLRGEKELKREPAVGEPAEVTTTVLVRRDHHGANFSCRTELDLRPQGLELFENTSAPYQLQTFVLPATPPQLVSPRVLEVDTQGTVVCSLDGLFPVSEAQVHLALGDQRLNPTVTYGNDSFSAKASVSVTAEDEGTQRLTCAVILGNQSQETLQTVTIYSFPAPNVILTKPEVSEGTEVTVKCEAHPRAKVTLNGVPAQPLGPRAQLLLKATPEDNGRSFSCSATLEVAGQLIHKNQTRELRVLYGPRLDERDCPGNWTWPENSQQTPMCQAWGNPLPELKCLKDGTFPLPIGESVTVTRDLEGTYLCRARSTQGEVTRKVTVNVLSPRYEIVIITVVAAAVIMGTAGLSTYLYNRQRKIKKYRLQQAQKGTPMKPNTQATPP
# Experiment: flow cytometry, DU145 cells;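 further: purified antibodies in dilution series bound to cells for 1 h at 4 °C, detected with a fluorescent secondary antibody (1 h, 4 °C, dark), read by flow cytometry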
# Protocol: Harvested cells were centrifuged at 2000 rpm for 5 min and resuspended with 10-15 ml ice-cold culture medium. Cells were counted and then 3×10⁶ cells were resuspended per mL of blocking buffer (PBS plus 2% FBS). 100 μl of the cell suspension was dispensed into each well of a 96-well plate and incubated at room temperature for 10-20 min. […] While incubating, purified antibodies were diluted to the desired dilution with blocking buffer. After a 10-20 minutes incubation, cells were centrifuged for 5 min at 2000 rmp in a refrigerated centrifuge. Blocking buffer was aspirated, and cells were resuspended in 100 μl/well diluted antibodies and incubated for 1 hour at 4° C. The cells were then washed 3 times with PBS plus 2% FBS. After the final wash, the cells were resuspended in 100 μl 1:500 diluted secondary antibody (Invitrogen, Cat #: A10631) and incubated for 1 hour at 4° C. in the dark. The cells were then washed 3 times with 200 μl PBS by centrifuging at 2000 rpm for 5 min. After the last wash, the cells were resuspended in 300 μl cold PBS and analyzed on a FACSVerse™ (BD Biosciences) flow cytometer.
Binder,EC50 [pM],Max Binding MFI [MFI]
B1,1820,5270
B2,1040,4820
B3,1310,4720
B4,879,5000
B5,591,4690
B6,112,5940
B7,251,6220
B8,1310,4060
B9,1450,3700
B10,1020,3750

# Target: T1, Rhesus-ICAM1
# Experiment: SPR (Biacore 8K), antibody captured, antigen injected
Binder,Kd [pM],koff [s⁻¹],kon [M⁻¹ s⁻¹]
B1,2920,0.00125,427000
B2,4280,0.000624,146000
B3,4110,0.000568,138000
B4,1790,0.000421,236000
B5,2250,0.000434,193000
B6,8200,0.00218,266000
B7,8270,0.00245,296000
B8,250,0.000224,914000
B9,540,0.000277,517000
B10,880,0.000658,746000

# Target: T3, recombinant human ICAM1 (human, UniProt P05362 28-480, limits assumed)
# T3 sequence (P05362 28-480 limits assumed): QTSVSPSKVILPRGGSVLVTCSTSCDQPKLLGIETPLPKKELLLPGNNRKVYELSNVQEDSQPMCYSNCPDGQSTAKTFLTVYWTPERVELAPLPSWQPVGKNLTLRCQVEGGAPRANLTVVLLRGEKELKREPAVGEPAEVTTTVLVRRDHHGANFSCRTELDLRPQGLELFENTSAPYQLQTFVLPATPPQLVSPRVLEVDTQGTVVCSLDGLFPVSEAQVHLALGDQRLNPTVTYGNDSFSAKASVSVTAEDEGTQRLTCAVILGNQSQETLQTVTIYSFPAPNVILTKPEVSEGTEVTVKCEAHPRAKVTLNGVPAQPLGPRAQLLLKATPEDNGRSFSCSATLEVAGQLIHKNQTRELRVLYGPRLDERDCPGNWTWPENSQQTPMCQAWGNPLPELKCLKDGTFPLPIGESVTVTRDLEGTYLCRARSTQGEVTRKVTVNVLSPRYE
# Experiment: as above
Binder,Kd [pM],koff [s⁻¹],kon [M⁻¹ s⁻¹]
B1,3100,0.000345,111000
B2,2650,0.000271,103000
B3,3390,0.000256,75600
B4,2120,0.000181,85500
B5,1620,0.000237,146000
B6,2740,0.000584,213000
B7,3320,0.000682,206000
B8,290,0.000131,456000
B9,570,0.000134,237000
B10,260,0.000115,442000

# Target: T3, recombinant human ICAM1
# Experiment: ELISA: plate coated with 1 ug/ml recombinant human ICAM1 ECD, serially diluted antibody, OD450
# Protocol: (§1) The plate was coated overnight at 4° C. with 1 μg/ml recombinant CD38 or ICAM1. After washing 3 times, the plate was blocked with 300 μl 1% BSA in PBST at 37° C. for 1 hour. Serially diluted antibodies were added and incubated at 37° C. for 1 hour. The plate was then washed 4 times with PBST and incubated with 1:5000 diluted 2nd antibody (Sigma, Cat #A0293) at 37° C. for 1 hour.
row,Binder,EC50 (read off the curve) [pM]
1,B1,~40
2,B2,~40
3,B3,~40
4,B4,~40
5,B5,~40
6,B6,~40
7,B7,~40
8,B8,~40
9,B9,~40
10,B10,~40

# Target: T1, Rhesus-ICAM1
# Experiment: ELISA: plate coated with 1 ug/ml recombinant rhesus ICAM1 ECD, serially diluted antibody, OD450
# Protocol: as §1
row,Binder,EC50 (read off the curve) [pM]
1,B1,~40
2,B2,~40
3,B3,~40
4,B4,~40
5,B5,~40
6,B6,~40
7,B7,~40
8,B8,~40
9,B9,~40
10,B10,~40

# Target: recombinant human CD38 (human, UniProt P28907 43-300, limits assumed)
# Experiment: SPR (Biacore 8K), antibody captured, antigen injected
# Protocol: (§2) The binding kinetics of the anti-CD38 and anti-ICAM1 antibodies were evaluated on a Biacore 8K instrument (GE Healthcare). Biacore Series S CM5 sensor chips were immobilized with monoclonal mouse anti-human IgG (Fc) antibody (human antibody capture kit from GE Healthcare). Antibodies were captured on each flow cell. Serial 3-fold dilutions of each antigen were injected at a flow rate of 30 μl/min. Each sample was analyzed with 1 min association and 10 min dissociation at room temperature (25° C.). After each injection, the chip was regenerated using 3M MgCl₂. A 1:1 Langmuir model of simultaneous fitting of kₒₙ and koff was used for kinetics analysis.
Binder,Kd [pM],koff [s⁻¹],kon [M⁻¹ s⁻¹]
B11,3810,0.00188,494000
B12,420,0.000273,657000
B13,1790,0.00077,430000
B14,38200,0.0116,304000
B15,660,0.000295,449000
B16,1680,0.000596,354000
B17,3610,0.00178,493000
B18,2230,0.00121,542000
B19,13100,0.00887,675000

# Target: T4, cynomolgus CD38 ECD (cynomolgus, UniProt Q5VAN0 44-301, biotinylated on the AviTag during preparation)
# T4 construct: also called Cyno-CD38; Avi-Cyno CD38 ECD
# Experiment: as above
# Protocol: as §2
Binder,Kd [pM],koff [s⁻¹],kon [M⁻¹ s⁻¹]
B11,1680,0.00288,1.71e+06
B12,620,0.00157,2.53e+06
B13,1650,0.00253,1.53e+06
B14,12400,0.0155,1.25e+06
B15,830,0.00144,1.74e+06
B16,1330,0.00168,1.26e+06
B17,4100,0.00496,1.21e+06
B18,1480,0.00321,2.17e+06
B19,7430,0.0156,2.1e+06
